{"source": "patent US20210087268A1", "about": "(YUHAN, published 2021)", "key": {"[1]": {"biological_target": "T1, human TIGIT expressed on CHO-S cells (CHO-hTIGIT) (human, UniProt Q495A1 22-244)", "T1 construct": "also called CHO-TIGIT cell line; TIGIT on the cell surface", "T1 sequence": "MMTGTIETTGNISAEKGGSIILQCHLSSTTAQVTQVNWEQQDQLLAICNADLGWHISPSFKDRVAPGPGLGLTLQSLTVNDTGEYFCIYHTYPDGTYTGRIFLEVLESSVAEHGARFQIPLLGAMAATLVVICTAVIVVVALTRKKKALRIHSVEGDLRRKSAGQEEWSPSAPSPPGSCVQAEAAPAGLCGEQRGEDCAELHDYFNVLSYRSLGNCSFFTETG", "test": "flow cytometry on CHO-TIGIT cells", "description": "In order to identify the binding ability of the three types of anti-TIGIT antibodies produced in Example 2 to TIGIT expressed on the cell surface, TIGIT-overexpressing CHO cell line (hereinafter referred to as CHO-TIGIT cell line) was treated with anti-TIGIT antibodies and then the anti-TIGIT antibodies bound to TIGIT on the cell surface were detected using a fluorescence flow cytometer.\nSpecifically, the CHO-TIGIT cell line was cultured in a 5% CO2 incubator at 37° C. for 48 to 72 hours using a chemical composition medium (CD FortiCHO Chemically Defined Medium+8 mM L-Glutamine+20 μg/mL Blasticidin+1% Anti-clumping agent). The cultured CHO-TIGIT cell line was harvested by centrifugation, diluted in FACS solution (PBS+5% FBS), and dispensed at a density of 1×10⁵ cells/well in a 96-well round bottom plate (Corning). Then, in order to completely remove the chemical composition medium remaining on the cell surface, the FACS solution was added, centrifuged at 2,000 rpm for 3 minutes and washed three times to remove the supernatant. The washed CHO-TIGIT cell line was re-suspended by addition of 100 μL of FACS solution. The anti-TIGIT antibody of each concentration, which was diluted to 2 times the final concentration using the FACS solution, was added at 100 μL to a 96-well round bottom plate in which the CHO-TIGIT cell line was dispensed, and incubated at 4° C. for 1 hour. Then, in order to remove the anti-TIGIT antibody remaining in the supernatant, without binding to the TIGIT on the cell surface, the FACS solution was added to each well, centrifuged at 2,000 rpm for 3 minutes, and washed three times to remove the supernatant. Then, in order to detect anti-TIGIT antibody bound to TIGIT on the cell surface, a goat anti-human IgG (H+L) cross-adsorbed secondary antibody (Invitrogen) was diluted to 10 μg/mL using a FACS solution, and 100 μL of the diluted antibody was incubated at 4° C. for 1 hour. After washing three times, each sample was transferred to a 12×75 mm tube (BD Biosciences) and analyzed using a fluorescence flow cytometer."}, "[2]": {"biological_target": "T2, human TIGIT-Fc (rhTIGIT-Fc, R&D Systems) (human, UniProt Q495A1 22-141)", "T2 construct": "Bought protein; also called human TIGIT (rhTIGIT-Fc); not shown: Fc part of the bought fusion protein", "T2 sequence": "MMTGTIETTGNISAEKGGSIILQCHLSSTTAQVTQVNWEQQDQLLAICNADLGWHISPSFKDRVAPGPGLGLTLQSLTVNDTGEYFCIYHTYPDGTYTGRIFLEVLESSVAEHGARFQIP", "test": "SPR (BIAcore T200), antibody immobilised on CM5 chip, TIGIT-Fc flowed", "text": "(§1) In order to measure binding abilities of the three types of anti-TIGIT antibodies produced in Example 2 to human TIGIT (rhTIGIT-Fc) and mouse TIGIT (rmTIGIT-Fc), surface plasmon resonance (SPR) using a BIAcore T200 (GE Healthcare) was used. The SPR method is based on the principle that the refractive index of light passing through a sensor chip changes according to the state of a substance coated on the sensor chip. When an antigen or antibody was made to flow into the chip coated with the antigen or antibody, the refractive index is changed due to binding therebetween and the affinity (KD) value is calculated from the measured value.\n(§2) An anti-TIGIT antibody was immobilized on a Series S CM5 sensor chip (GE Healthcare) to a level of 500 RU using a 10 mM acetate solution (pH 4.0) and an amine coupling kit (GE Healthcare). […] The association of the TIGIT-Fc proteins was measured at a rate of 30 μL/min for 600 seconds, the dissociation was measured for 2,000 seconds, and the regeneration was carried out in a 10 mM glycine solution (pH 1.5) at a rate of 100 μL/min for 25 seconds."}, "[3]": {"biological_target": "T3, mouse TIGIT-Fc (rmTIGIT-Fc, R&D Systems) (mouse, UniProt P86176 29-148, limits assumed)", "T3 construct": "Bought protein; also called mouse TIGIT (rmTIGIT-Fc); not shown: Fc part of the bought fusion protein", "T3 sequence (looked up)": "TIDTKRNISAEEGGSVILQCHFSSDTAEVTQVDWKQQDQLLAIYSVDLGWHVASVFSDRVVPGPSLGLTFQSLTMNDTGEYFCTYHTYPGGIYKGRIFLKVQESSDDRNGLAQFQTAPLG", "test": "SPR (BIAcore T200), antibody immobilised on CM5 chip, TIGIT-Fc flowed", "text": "as §1, §2"}, "[4]": {"biological_target": "T4, TIGIT expressed on cells (TIGIT-expressing effector cell line of the Promega kit); TIGIT-overexpressing NK92 … (UniProt Q495A1 22-244, limits assumed)", "T4 sequence (looked up)": "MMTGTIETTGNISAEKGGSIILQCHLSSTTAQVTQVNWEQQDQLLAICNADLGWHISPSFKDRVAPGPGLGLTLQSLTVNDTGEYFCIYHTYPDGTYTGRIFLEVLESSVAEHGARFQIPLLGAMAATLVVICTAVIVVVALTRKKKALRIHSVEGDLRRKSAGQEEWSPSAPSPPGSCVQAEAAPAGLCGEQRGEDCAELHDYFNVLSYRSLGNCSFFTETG", "test": "cell-based or functional assay"}}}
{"binder": "S64-39-IgG1 (antibody, V domains shown, also called 564-39-IgG1 [sic]; antibody based on the S64-39 clones) VH: EVQLLESGGGLVQPGGSLRLSCAASGFTFSNYAMSWVRQAPGKGLEWVSGISPSGSSIYYADSVQGRFTISRDNSKNTLYLQMNSLRAEDTAVYYCAKAIRTCSLSHCYYYYGMDVWGQGTLVTVSS VL: QSVLTQPPSASGTPGQRVTISCSSSSSNIGSNAVNWYQQLPGTAPKLLIYYDNQRPSGVPDRFSGSKSGTSASLAISGLRSEDEADYYCATWDYSLSGYVFGGGTKLTVL", "values": [{"measurement": "EC50", "setting": "[1]", "value": 0.069, "unit": "µg/mL"}, {"measurement": "Kd", "setting": "[2]", "value": 1.31, "unit": "nM"}, {"measurement": "koff", "setting": "[2]", "value": "4.41e-05", "unit": "s⁻¹"}, {"measurement": "kon", "setting": "[2]", "value": 33700, "unit": "M⁻¹ s⁻¹"}, {"measurement": "Kd", "setting": "[3]", "value": 3.2, "unit": "nM"}, {"measurement": "koff", "setting": "[3]", "value": 0.000201, "unit": "s⁻¹"}, {"measurement": "kon", "setting": "[3]", "value": 62800, "unit": "M⁻¹ s⁻¹"}, {"measurement": "binding inhibition (EC50), TIGIT/CD155 blockade assay, luminescence fold response", "setting": "[4]", "value": 581, "unit": "nM"}]}
{"binder": "S64-39-IgG4 (antibody, V domains shown, also called 564-39-IgG4 [sic]) VH: EVQLLESGGGLVQPGGSLRLSCAASGFTFSNYAMSWVRQAPGKGLEWVSGISPSGSSIYYADSVQGRFTISRDNSKNTLYLQMNSLRAEDTAVYYCAKAIRTCSLSHCYYYYGMDVWGQGTLVTVSS VL: QSVLTQPPSASGTPGQRVTISCSSSSSNIGSNAVNWYQQLPGTAPKLLIYYDNQRPSGVPDRFSGSKSGTSASLAISGLRSEDEADYYCATWDYSLSGYVFGGGTKLTVL", "values": [{"measurement": "EC50", "setting": "[1]", "value": 0.0808, "unit": "µg/mL"}, {"measurement": "Kd", "setting": "[2]", "value": 1.15, "unit": "nM"}, {"measurement": "koff", "setting": "[2]", "value": "3.23e-05", "unit": "s⁻¹"}, {"measurement": "kon", "setting": "[2]", "value": 28200, "unit": "M⁻¹ s⁻¹"}, {"measurement": "Kd", "setting": "[3]", "value": 3.12, "unit": "nM"}, {"measurement": "koff", "setting": "[3]", "value": 0.000194, "unit": "s⁻¹"}, {"measurement": "kon", "setting": "[3]", "value": 62200, "unit": "M⁻¹ s⁻¹"}, {"measurement": "binding inhibition (EC50), TIGIT/CD155 blockade assay, luminescence fold response", "setting": "[4]", "value": 1080, "unit": "nM"}]}
{"binder": "10A7 antibody (antibody, V domains shown) VH: EVQLVESGGGLTQPGKSLKLSCEASGFTFSSFTMHWVRQSPGKGLEWVAFIRSGSGIVFYADAVRGRFTISRDNAKNLLFLQMNDLKSEDTAMYYCARRPLGHNTFDSWGQGTLVTVSS VL: DIVMTQSPSSLAVSPGEKVTMTCKSSQSLYYSGVKENLLAWYQQKPGQSPKLLIYYASIRFTGVPDRFTGSGSGTDYTLTITSVQAEDMGQYFCQQGINNPLTFGDGTKLEIKR", "values": [{"measurement": "EC50", "setting": "[1]", "value": 0.0165, "unit": "µg/mL"}, {"measurement": "Kd", "setting": "[2]", "value": 1.19, "unit": "nM"}, {"measurement": "koff", "setting": "[2]", "value": 0.000193, "unit": "s⁻¹"}, {"measurement": "kon", "setting": "[2]", "value": 162000, "unit": "M⁻¹ s⁻¹"}, {"measurement": "Kd", "setting": "[3]", "value": 0.182, "unit": "nM"}, {"measurement": "koff", "setting": "[3]", "value": "8.91e-05", "unit": "s⁻¹"}, {"measurement": "kon", "setting": "[3]", "value": 490000, "unit": "M⁻¹ s⁻¹"}]}
{"binder": "F04-10-IgG1 (antibody, V domains shown, also called antibody based on the F04-10 clones) VH: EVQLLESGGGLVQPGGSLRLSCAASGFTFSSYYMSWVRQAPGKGLEWVSSIGSGSPSSTYYADSVKGRFTISRDNSKNTLYLQMNSLRAEDTAVYYCARSSYSGGNGYYYYAYAFDYWGQGTLVTVSS VL: EIVLTQSPGTLSLSPGERATLSCRASQSVSSSYLAWYQQKPGQAPRLLIYGASSRATGIPDRFSGSGSGTDFTLTISRLEPEDFAVYYCQQGYHRYATFGQGTKVEIK", "values": [{"measurement": "EC50", "setting": "[1]", "value": 0.0164, "unit": "µg/mL"}, {"measurement": "Kd", "setting": "[2]", "value": 0.533, "unit": "nM"}, {"measurement": "koff", "setting": "[2]", "value": "3.76e-05", "unit": "s⁻¹"}, {"measurement": "kon", "setting": "[2]", "value": 70500, "unit": "M⁻¹ s⁻¹"}, {"measurement": "Kd", "setting": "[3]", "value": 0.245, "unit": "nM"}, {"measurement": "koff", "setting": "[3]", "value": "2.93e-05", "unit": "s⁻¹"}, {"measurement": "kon", "setting": "[3]", "value": 120000, "unit": "M⁻¹ s⁻¹"}, {"measurement": "binding inhibition (EC50), TIGIT/CD155 blockade assay, luminescence fold response", "setting": "[4]", "value": 23.9, "unit": "nM"}]}
